Experimental data as given in US12404345B2, “Humanized antibodies against iRHOM2” (SCIRHOM GMBH, priority 2021, dated 2025).

T1: rhesus monkey iRhom1 (Macaca mulatta, UniProt F6ZPC8)
T1 construct: T7-tagged version of rhesus monkey iRhom1 full length wild type; expressed in transfected cells; host or cells: immortalized iRhom1/2-/- DKO mouse embryonic fibroblasts, pMSCV retroviral infection
T1 sequence (F6ZPC8 1-833): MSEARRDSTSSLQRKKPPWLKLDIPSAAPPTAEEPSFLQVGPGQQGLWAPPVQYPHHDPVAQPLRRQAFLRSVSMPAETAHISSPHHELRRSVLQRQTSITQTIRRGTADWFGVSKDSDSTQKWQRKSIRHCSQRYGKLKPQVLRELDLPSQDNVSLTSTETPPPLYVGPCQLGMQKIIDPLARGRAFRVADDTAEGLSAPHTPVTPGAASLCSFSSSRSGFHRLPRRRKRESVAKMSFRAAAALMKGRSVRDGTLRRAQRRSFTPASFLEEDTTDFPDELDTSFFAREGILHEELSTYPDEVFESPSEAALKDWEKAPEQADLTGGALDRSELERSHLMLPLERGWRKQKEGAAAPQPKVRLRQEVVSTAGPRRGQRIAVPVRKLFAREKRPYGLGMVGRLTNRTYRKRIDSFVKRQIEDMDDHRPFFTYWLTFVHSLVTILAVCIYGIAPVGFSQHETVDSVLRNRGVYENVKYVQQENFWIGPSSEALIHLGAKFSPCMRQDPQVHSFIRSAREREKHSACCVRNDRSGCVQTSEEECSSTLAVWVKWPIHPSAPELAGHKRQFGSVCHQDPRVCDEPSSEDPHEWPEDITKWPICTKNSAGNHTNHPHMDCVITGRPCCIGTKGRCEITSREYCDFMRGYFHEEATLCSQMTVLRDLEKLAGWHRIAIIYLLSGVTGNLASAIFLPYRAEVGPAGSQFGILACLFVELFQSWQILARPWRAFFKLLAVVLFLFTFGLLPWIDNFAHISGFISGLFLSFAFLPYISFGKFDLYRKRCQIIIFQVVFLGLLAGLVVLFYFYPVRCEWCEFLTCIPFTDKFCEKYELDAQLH


Tests used:
[1] = biological target: T1, rhesus monkey iRhom1; experiment: FACS binding on MEF-DKO-Rhesus-iR1-FL-WT-T7 cells; conditions: antibody at 3 μg/ml
Source text: (§1) Next, iRhom1/2−/− DKO MEFs stably expressing a tagged form of rhesus monkey, cynomolgus monkey, dog or rabbit iRhom2 were generated in order to determine cross-reactivity of the antibodies of the invention with the respective orthologue of iRhom2. iRhom1/2−/− DKO MEFs stably expressing a tagged form of rhesus monkey, cynomolgus monkey, dog or rabbit iRhom1 were generated to confirm specificity for iRhom2 versus iRhom1 of these species.
(§2) In brief, on day 1, Phoenix-ECO cells (American Type Culture Collection, USA) were seeded on 6-well tissue culture plates (Greiner, Germany) in standard growth medium at 8×10^5 cells per well and kept overnight at 37° C., 5% CO2. On day 2, the medium was replaced by fresh medium supplemented with chloroquine (Sigma-Aldrich, USA) at a final concentration of 25 μM. Applying the calcium phosphate method, cells were transfected with 2 μg/ml of pMSCV (Clontech, USA) empty vector, pMSCV-rhesus-iR2-FL-WT-T7 encoding rhesus monkey iRhom2 full length wild type C-terminally tagged with 3 consecutive copies of the T7 epitope, pMSCV-cyno-iR2-FL-WT-T7 encoding cynomolgus monkey iRhom2 full length wild type C-terminally tagged with 3 consecutive copies of the T7 epitope, pMSCV-dog-iR2-FL-WT-T7 encoding dog iRhom2 full length wild type C-terminally tagged with 3 consecutive copies of the T7 epitope or pMSCV-rabbit-iR2-FL-WT-T7 encoding rabbit iRhom2 full length wild type C-terminally tagged with 3 consecutive copies of the T7 epitope, respectively, and were kept at 37° C., 5% CO2. After 7 hours, the transfections were stopped by replacing cell supernatants with standard growth medium lacking chloroquine, and cells were incubated at 37° C., 5% CO2 to allow virus production overnight. In parallel, immortalized iRhom1/2−/− DKO MEFs as target cells for retroviral infection were seeded on 6-well tissue culture plates (Greiner, Germany) in standard growth medium at 1×10^5 cells per well and were also kept overnight at 37° C., 5% CO2. On day 3, the supernatants of Phoenix-ECO cells releasing pMSCV, pMSCV-rhesus-iR2-FL-WT-T7, pMSCV-cyno-iR2-FL-WT-T7, pMSCV-dog-iR2-FL-WT-T7 or pMSCV-rabbit-iR2-FL-WT-T7 ecotrophic virus, respectively were collected, filtered with 0.45 μm CA filters, and supplemented with 4 μg/ml of polybrene (Sigma-Aldrich, USA). Upon removal of medium from the immortalized iRhom1/2−/− DKO MEFs, the virus containing supernatants were added to the target cells for 4 hours at 37° C., 5% CO2 for first infection. Simultaneously, Phoenix-ECO cells were re-incubated with fresh medium, which, after another 4 hours, was filtered and used for the second infection of the respective target cell populations, again in the presence of 4 μg/ml of polybrene. Likewise, a third, but overnight infection cycle was performed. On day 4, virus containing cell supernatants were replaced by fresh standard growth medium. From day 5 onwards, cells were grown in the presence of 2 mg/ml of geneticin (G418, Thermo Fisher Scientific, USA) for the selection of immortalized MEF-DKO-EV control cells stably infected with pMSCV empty vector, pMSCV-rhesus-iR2-FL-WT-T7 cells stably expressing rhesus monkey iRhom2 full length wild type C-terminally tagged with 3 consecutive copies of the T7 epitope, pMSCV-cyno-iR2-FL-WT-T7 cells stably expressing cynomolgus monkey iRhom2 full length wild type C-terminally tagged with 3 consecutive copies of the T7 epitope, pMSCV-dog-iR2-FL-WT-T7 cells stably expressing dog iRhom2 full length wild type C-terminally tagged with 3 consecutive copies of the T7 epitope or pMSCV-rabbit-iR2-FL-WT-T7 cells stably expressing rabbit iRhom2 full length wild type C-terminally tagged with 3 consecutive copies of the T7 epitope, respectively. Upon propagation, cells were stocked for future usage. In parallel, iRhom1/2−/− DKO MEFs stably expressing a tagged form of rhesus monkey, cynomolgus monkey, dog or rabbit iRhom1 were generated in an analogous manner. […]

[2] = test system: cynomolgus monkey iRhom2; experiment: FACS cross-reactivity on MEF-DKO-Cyno-iR2-FL-WT-T7 cells; type: binding; conditions: antibody at 3 μg/ml
Source text: as §1, §2

| Molecule | binding to rhesus monkey iRhom1 on MEF-DKO-Rhesus-iR1-FL-WT-T7 cells [1] | binding to cynomolgus monkey iRhom2 on MEF-DKO-Cyno-iR2-FL-WT-T7 cells [2] |
| --- | --- | --- |
| 23-B-04: humanized antibody binding human iRhom2; HCVD SEQ ID NO 25, LCVD SEQ ID NO 29 (antibody, V domains shown, antibody sequences) VH: QVTLRESGPALVKPTQTLTLTCTFSGFSLSTFGMGVGWIRQPPGKALEWLAHIWWDDEKYYNSALKSRLTISKDTSKNQVVLTITNMDPVDTATYYCARISNYGSNYWYFNVWGQGTLVTVSS VL: AIQLTQSPSSLSASVGDRVTITCRASSSVSYMYWYQQKPGKAPKVLIYDTSNLASGVPSRFSGSGSGTDYTLTISSLQPEDFATYYCQQWNAYPLTFGQGTKLEIK | do not recognize rhesus monkey iRhom1 | recognize cynomolgus monkey iRhom2 |
| 42-B-02: humanized antibody binding human iRhom2; HCVD SEQ ID NO 33, LCVD SEQ ID NO 37 (antibody, V domains shown, antibody sequences) VH: QVTLRESGPALVKPTQTLTLTCTFSGFSLSTFGRGVGWIRQPPGKALEWLAHIWWDDEKYYNSALKSRLTISKDTSKNQVVLTITNMDPVDTATYYCARIQNYGSNYWYFDVWGQGTLVTVSS VL: AIQLTQSPSSLSASVGDRVTITCRASSRISYMFWYQQKPGKAPKVLIYDTSNLASGVPSRFSGSGSGTDYTLTISSLQPEDFATYYCQQWNSYPLTFGQGTKLEIK | do not recognize rhesus monkey iRhom1 | recognize cynomolgus monkey iRhom2 |
| 42-B-04: humanized antibody binding human iRhom2; HCVD SEQ ID NO 41, LCVD SEQ ID NO 45 (antibody, V domains shown, antibody sequences) VH: QVTLRESGPALVKPTQTLTLTCTFSGFSLSTFGRGVGWIRQPPGKALEWLAHIWWDDEKYYNSALKSRLTISKDTSKNQVVLTITNMDPVDTATYYCARIQNYGSNYWYFDVWGQGTLVTVSS VL: AIQLTQSPSSLSASVGDRVTITCRASSRISYMFWYQQKPGKAPKVLIYDTSNLASGVPSRFSGSGSGTDYTLTISSLQPEDFATYYCQQWNAYPLTFGQGTKLEIK | do not recognize rhesus monkey iRhom1 | recognize cynomolgus monkey iRhom2 |
| 16-B-03: humanized antibody binding human iRhom2; HCVD SEQ ID NO 1, LCVD SEQ ID NO 5 (antibody, V domains shown, antibody sequences) VH: QVTLRESGPALVKPTQTLTLTCTFSGFSLSTFALGVGWIRQPPGKALEWLAHIWWDDDKYYNPALKSRLTISKDTSKNQVVLTITNMDPVDTATYYCARITTYYYGMDYWGQGTLVTVSS VL: EIVMTQSPDFQSVTPKEKVTITCRASQSIGNHLHWYQQKPDASPKLLIKYASQSISGVPSRFSGSGSGTDFTLTINSLEAEDAATYFCQQSYQWPLTFGQGTKLEIK | no significant binding | Strong binding |
| 16-B-05: humanized antibody binding human iRhom2; HCVD SEQ ID NO 9, LCVD SEQ ID NO 13 (antibody, V domains shown, antibody sequences) VH: QVTLRESGPALVKPTQTLTLTCTFSGFSLSTFALGVGWIRQPPGKALEWLAHIWWDEDKYYNPALKSRLTISKDTSKNQVVLTITNMDPVDTATYYCARITTYYYGMDYWGQGTLVTVSS VL: EIVMTQSPDFQSVTPKEKVTITCRASQSIGNHLHWYQQKPDASPKLLIKYASQSISGVPSRFSGSGSGTDFTLTINSLEAEDAATYFCQQSYNWPLTFGQGTKLEIK | do not recognize rhesus monkey iRhom1 | recognize cynomolgus monkey iRhom2 |
| 16-B-07: humanized antibody binding human iRhom2; HCVD SEQ ID NO 17, LCVD SEQ ID NO 21 (antibody, V domains shown, antibody sequences) VH: QVTLRESGPALVKPTQTLTLTCTFSGFSLSTFALGVGWIRQPPGKALEWLAHIWWDEDKYYNPALKSRLTISKDTSKNQVVLTITNMDPVDTATYYCARITTYYYGMDYWGQGTLVTVSS VL: EIVMTQSPDFQSVTPKEKVTITCRASQSIGNHLHWYQQKPDASPKLLIKYASQSISGVPSRFSGSGSGTDFTLTINSLEAEDAATYFCQQSYQWPLTFGQGTKLEIK | do not recognize rhesus monkey iRhom1 | recognize cynomolgus monkey iRhom2 |
